{"source": "paper PMC5863699", "about": "“Sensing iron availability via the fragile [4Fe–4S] cluster of the bacterial transcriptional repressor RirA† †Electronic supplementary information (ESI) available. See DOI: 10.1039/c7sc02801f” (Chemical Science, 2017)", "proteins": {"B1": {"name": "Rhizobial iron regulator A (RirA) from Rhizobium leguminosarum (natural protein, UniProt Q9AE46 1-160, looked up)", "chain": "MRLTKQTNYAVRMLMYCAANDGHLSRIPEIAKAYGVSELFLFKILQPLNKAGLVETVRGRNGGVRLGKPAADISLFDVVRVTEDSFAMAECFEDDGEVECPLVDSCGLNSALRKALNAFFAVLSEYSIDDLVKARPQINFLLGITGEPAYRKPAIVAPAA", "notes": "RirA, Rhizobium leguminosarum strain 8401 (pRL1JI), rirA gene CAC35510, codon-optimised for E. coli; calculated mass of the monomer 17.4 kDa (apo predicted 17 442 Da, observed 17 441 Da); No tag is mentioned; It carries an iron–sulfur cluster as cofactor: [4Fe–4S] after reconstitution, and mainly [2Fe–2S] after 1 mM EDTA for 2.5 h; Less than 5% of the preparation was truncated, lacking 20 …"}}, "target": "the molecule itself", "assay": "native MS; ESI-MS under non-denaturing conditions, positive ion mode; cluster-reconstituted [4Fe–4S] RirA, ~30 μM in cluster, 250 mM ammonium acetate pH 7.3; monomer to dimer"}
{"protein": "B1", "values": [{"measurement": "stoichiometry N", "value": 2}]}
